These results are taken from patent publication US20210024654A1 (AMPHIVENA THERAPEUTICS, published 2021).

Substitutions are numbered along the chain they refer to.

B1: CD33/CD3 tandem diabody 07 (bispecific antibody)
chain: DIQMTQSPSSLSASVGDRVTITCRSSTGAVTTSNYANWVQQKPGKAPKALIGGTNKRAPGVPSRFSGSLIGDKATLTISSLQPEDFATYYCALWYSNLWVFGQGTKVEIKGGSGGSQVQLQESGGGVVQPGRSLRLSCAASGFSFSNYGIHWVRQAPGKGLEWVALISYDGNKKFYADSVKGRFAISRDTSKNTVDLQMTSLRPEDTAVYYCAKDRLESAAFDYWGQGTLVTVSSGGSGGSSYELTQPPSVSVAPGQTAMITCGGNNIGSTTVHWYQQKPGQAPVLVVYDDNERPSGIPERFSGSNSGSTATLTINRVEAGDEADYYCQVWDSGSDHVVFGGGTKLTVLGGSGGSEVQLVESGGGLVQPGGSLRLSCAASGFTFSTYAMNWVRQAPGKGLEWVGRIRSKYNNYATYYADSVKDRFTISRDDSKNSLYLQMNSLKTEDTAVYYCARHGNFGNSYVSYFAYWGQGTLVTVSSAAAGSHHHHHH
B2: CD33/CD3 tandem diabody 02 (bispecific antibody)
chain: DIQMTQSPSSLSASVGDRVTITCRSSTGAVTTSNYANWVQQKPGKAPKGLIGGTNKRAPGVPARFSGSGSGTDFTLTISSLQPEDFATYYCALWYSNLWVFGQGTKVEIKGGSGGSQVQLVQSGAEVKKPGASVKVSCKASGYTFTSYDINWVRQAPGQGLEWMGWMNPNSGNTGFAQKFQGRVTMTRDTSTSTVYMELSSLRSEDTAVYYCARDRAVTDYYYGMDVWGQGTLVTVSSGGSGQSVLTQPPSASGTPGQRVTISCSGSRSNIGSNTVNWYQQLPGTAPKLLIYGNNQRPSGVPDRFSGSKSGTSASLAISGLQSEDEADYYCATWDDSLIGWVFGGGTKLTVLGGSGGSEVQLVESGGGLVQPGGSLRLSCAASGFTFSTYAMNWVRQAPGKGLEWVGRIRSKYNNYATYYADSVKDRFTISRDDSKNSLYLQMNSLKTEDTAVYYCARHGNFGNSYVSWFAYWGQGTLVTVSSAAAGSHHHHHH
B3: CD33/CD3 tandem diabody 04 (bispecific antibody)
chain: B2 chain with V218N, Y222S, Y223L
B4: CD33/CD3 tandem diabody 11 (bispecific antibody)
chain: B2 chain with A63S, G69L, S70I, T72D, D73K, F74A, V218N, Y222S, Y223L
B5: CD33/CD3 tandem diabody 12 (bispecific antibody)
chain: B2 chain with G49A, A63S, G69L, S70I, T72D, D73K, F74A, W469Y
B6: CD33/CD3 tandem diabody 10 (bispecific antibody)
chain: B2 chain with A63S, G69L, S70I, T72D, D73K, F74A, V218N, Y222S, Y223F
B7: CD33/CD3 tandem diabody 01 (bispecific antibody)
chain: B2 chain with V218N, Y221F, Y222S, T312S
B8: CD33/CD3 tandem diabody 09 (bispecific antibody)
chain: B2 chain with A63S, G69L, S70I, T72D, D73K, F74A, V218N, Y221F, Y222S, T312S
B9: CD33/CD3 tandem diabody 03 (bispecific antibody)
chain: B2 chain with V218N, Y222S, Y223F
B10: CD33/CD3 tandem diabody 05 (bispecific antibody)
chain: DIQMTQSPSSLSASVGDRVTITCRSSTGAVTTSNYANWVQQKPGKAPKGLIGGTNKRAPGVPARFSGSGSGTDFTLTISSLQPEDFATYYCALWYSNLWVFGQGTKVEIKGGSGGSQVQLVQSGAEVKKPGASVKVSCKASGYTFTSYDINWVRQAPGQGLEWMGWMNPNSGNTGFAQKFQGRVTMTRDTSTSTVYMELSSLRSEDTAVYYCARDRANTDYSFGMDVWGQGTLVTVSSGGSGGQSVLTQPPSASGTPGQRVTISCSGSRSNIGSNTVNWYQQLPGTAPKLLIYGNNQRPSGVPDRFSGSKSGTSASLAISGLQSEDEADYYCATWDDSLIGWVFGGGTKLTVLGGSGGSEVQLVESGGGLVQPGGSLRLSCAASGFTFSTYAMNWVRQAPGKGLEWVGRIRSKYNNYATYYADSVKDRFTISRDDSKNSLYLQMNSLKTEDTAVYYCARHGNFGNSYVSWFAYWGQGTLVTVSSAAAGSHHHHHH
B11: CD33/CD3 tandem diabody 06 (bispecific antibody)
chain: B10 chain with F223L
B12: CD33/CD3 tandem diabody 13 (bispecific antibody)
chain: DIQMTQSPSSLSASVGDRVTITCRSSTGAVTTSNYANWVQQKPGKAPKGLIGGTNKRAPGVPSRFSGSLIGTDFTLTISSLQPEDFATYYCALWYSNLWVFGQGTKVEIKGGSGGSQVQLVQSGAEVKKPGASVKVSCKASGYTFTSYDINWVRQAPGQGLEWMGWMNPNSGNTGFAQKFQGRVTMTRDTSTSTVYMELSSLRSEDTAVYYCARDRAVTDYYYGMDVWGQGTLVTVSSGGSGQSVLTQPPSASGTPGQRVTISCSGSRSNIGSNTVNWYQQLPGTAPKLLIYGNNQRPSGVPDRFSGSKSGTSASLAISGLQSEDEADYYCATWDDSLIGWVFGGGTKLTVLGGSGGSEVQLVESGGGLVQPGGSLRLSCAASGFTFSTYAMNWVRQAPGKGLEWVGRIRSKYNNYATYYADSVKDRFTISRDDSKNSLYLQMNSLKTEDTAVYYCARHGNFGNSYVSWFAYWGQGTLVTVSS
B13: CD33/CD3 tandem diabody 24 (bispecific antibody)
chain: DIQMTQSPSSLSASVGDRVTITCRSSTGAVTTSNYANWVQQKPGKAPKALIGGTNKRAPGVPSRFSGSLIGDKATLTISSLQPEDFATYYCALWYSNLWVFGQGTKVEIKGGSGGSQVQLVQSGAEVKKPGSSVKVSCKASGGTFDSYAISWVRQAPGQGLEWMGGIIPIFGSAHYSQKFQGRVTITADESTSTAYMELSSLRSEDTAVYYCAREYYYDSSEWAFDIWGQGTLVTVSSGGSGQSVLTQPPSASGTPGQRVTISCSGSSSNIGDNVVNWYQQLPGTAPKLLIYSTNKRPSGVPDRFSGSKSGSSASLAISGLQSEDEADYYCAAWDDSLSAYVFGGGTKLTVLGGSGGSEVQLVESGGGLVQPGGSLRLSCAASGFTFSTYAMNWVRQAPGKGLEWVGRIRSKYNNYATYYADSVKDRFTISRDDSKNSLYLQMNSLKTEDTAVYYCARHGNFGNSYVSYFAYWGQGTLVTVSSAAAGSHHHHHH
B14: CD33/CD3 tandem diabody 08 (bispecific antibody)
chain: QSVLTQPPSASGTPGQRVTISCSGSRSNIGSNTVNWYQQLPGTAPKLLIYGNNQRPSGVPDRFSGSKSGSSASLAISGLQSEDEADYYCATWDDSLIGWVFGGGTKLTVLGGSGGSEVQLVESGGGLVQPGGSLRLSCAASGFTFSTYAMNWVRQAPGKGLEWVGRIRSKYNNYATYYADSVKDRFTISRDDSKNSLYLQMNSLKTEDTAVYYCARHGNFGNSYVSYFAYWGQGTLVTVSSGGSGGSDIQMTQSPSSLSASVGDRVTITCRSSTGAVTTSNYANWVQQKPGKAPKALIGGTNKRAPGVPSRFSGSLIGDKATLTISSLQPEDFATYYCALWYSNLWVFGQGTKVEIKGGSGGSQVQLVQSGAEVKKPGASVKVSCKASGYTFTSYDINWVRQAPGQGLEWMGWMNPNSGNTGFAQKFQGRVTMTRDTSTSTVYMELSSLRSEDTAVYYCARDRANTDFSYGMDVWGQGTLVTVSSAAAGSHHHHHH
B15: CD33/CD3 tandem diabody 22 (bispecific antibody)
chain: DIQMTQSPSSLSASVGDRVTITCRSSTGAVTTSNYANWVQQKPGKAPKALIGGTNKRAPGVPSRFSGSLIGDKATLTISSLQPEDFATYYCALWYSNLWVFGQGTKVEIKGGSGGSQVQLVQSGAEVKKPGSSVKVSCKASGGTFSSYGISWVRQAPGQGLEWMGGIIPIFGSAHYAQKFQGRVTITADESTSTAYMELSSLRSEDTAVYYCAREYYYDSSEWAFDIWGQGTLVTVSSGGSGQSVLTQPPSASGTPGQRVTISCSGSSSNIGSNTVKWYQQLPGTAPKLLIYSNNQRSSGVPDRFSGSKSGSSASLAISGLQSEDEADYYCAAWDDSLNGYVFGGGTKLTVLGGSGGSEVQLVESGGGLVQPGGSLRLSCAASGFTFSTYAMNWVRQAPGKGLEWVGRIRSKYNNYATYYADSVKDRFTISRDDSKNSLYLQMNSLKTEDTAVYYCARHGNFGNSYVSYFAYWGQGTLVTVSSAAAGSHHHHHH
B16: CD33/CD3 tandem diabody 23 (bispecific antibody)
chain: DIQMTQSPSSLSASVGDRVTITCRSSTGAVTTSNYANWVQQKPGKAPKGLIGGTNKRAPGVPSRFSGSLIGTDFTLTISSLQPEDFATYYCALWYSNLWVFGQGTKVEIKGGSGGSQVQLVQSGAEVKKPGSSVKVSCKASGGTFSSYGISWVRQAPGQGLEWMGGIIPIFGSAHYAQKFQGRVTITADESTSTAYMELSSLRSEDTAVYYCAREYYYDSSEWAFDIWGQGTLVTVSSGGSGQSVLTQPPSASGTPGQRVTISCSGSSSNIGSNTVKWYQQLPGTAPKLLIYSNNQRSSGVPDRFSGSKSGSSASLAISGLQSEDEADYYCAAWDDSLNGYVFGGGTKLTVLGGSGGSEVQLVESGGGLVQPGGSLRLSCAASGFTFSTYAMNWVRQAPGKGLEWVGRIRSKYNNYATYYADSVKDRFTISRDDSKNSLYLQMNSLKTEDTAVYYCARHGNFGNSYVSWFAYWGQGTLVTVSS

The target of this test is cynomolgus CD33 (cynomolgus). As to the kind of experiment: flow cytometry KDs on CHO cells, cyno CD33 / human CD33. A general note: Flow cytometry measures light scatter and fluorescence of single cells or particles in a stream.
Consider B1, for which the KD ratio CynoCD33/huCD33 stood at 45.8. As to B2, the KD ratio CynoCD33/huCD33 is 1.1. Regarding B3, the KD ratio CynoCD33/huCD33 worked out at 1.1.

With B4, the KD ratio CynoCD33/huCD33 amounted to 1.2. For B5, the KD ratio CynoCD33/huCD33 came to 1.7.

On to B6, for which the KD ratio CynoCD33/huCD33 is 0.8. With B7, the KD ratio CynoCD33/huCD33 was 0.7.

B8: the KD ratio CynoCD33/huCD33 was found to be 1. With B9, the KD ratio CynoCD33/huCD33 is 0.6. Take B10: the KD ratio CynoCD33/huCD33 stood at 0.8.

Consider B11, for which the KD ratio CynoCD33/huCD33 worked out at 0.8. On to B12, for which the KD ratio CynoCD33/huCD33 turned out to be 1.6. For the molecule B13, the KD ratio CynoCD33/huCD33 was determined as 1.8.

For B14, the KD ratio CynoCD33/huCD33 was found to be 0.6. The value for B15 was 0.6; that for B16 was 1.9.
